B1: rCnm N2 (domain or fragment)
chain: ASGTTGVFYYKTGDMQTDDTNHVRWFLNINNENAYVDSDIRIEDDIQSGQTLDIDSFDITVNGSESYRGQEGINQLAQRYGATISADSASGHISVYIPQGYASLNSFSIMYLTKVDNPDQKTFENNSKAWYKENGKDAVDGKEFNHSVANVNAAGGVDGR
B2: rCnm N1+2 (domain or fragment)
chain: SDVSNNVSSLTVSPTQINDGGKTTVRFEFDEHAQNIKAGDTITVNWQNSGTVRGTGYTKTIKLEVQGKYVGDLVVTQDKAVVTFNDSITGLQNITGWGEFEIEGRNFTDTTTGNTGSFQVTSGGKTSEVTVVKSASGTTGVFYYKTGDMQTDDTNHVRWFLNINNENAYVDSDIRIEDDIQSGQTLDIDSFDITVNGSESYRGQEGINQLAQRYGATISADSASGHISVYIPQGYASLNSFSIMYLTKVDNPDQKTFENNSKAWYKENGKDAVDGKEFNHSVANVNAAGGVDGR
B3: full-length recombinant Cnm (rCnm-FL) (domain or fragment)
chain: ASDVSNNVSSLTVSPTQINDGGKTTVRFEFDEHAQNIKAGDTITVNWQNSGTVRGTGYTKTIKLEVQGKYVGDLVVTQDKAVVTFNDSITGLQNITGWGEFEIEGRNFTDTTTGNTGSFQVTSGGKTSEVTVVKSASGTTGVFYYKTGDMQTDDTNHVRWFLNINNENAYVDSDIRIEDDIQSGQTLDIDSFDITVNGSESYRGQEGINQLAQRYGATISADSASGHISVYIPQGYASLNSFSIMYLTKVDNPDQKTFENNSKAWYKENGKDAVDGKEFNHSVANVNAAGGVDGRTTTTTEKPTTTTEAPTTTEAPTTTEAPTTTETPTTTEAPTTTEAPTTTEAPTTTEAPTTTETPTTTEAPTTTEAPTTTEAPTTTEAPTTTEAPTTTEAPTTTEAPTTTEASSETTKAEEKTTEVKEPEKTTTTAPAGKT

Target: T1, type I collagen (BD-Biosciences) (UniProt P02454 152-1207; P02466 86-1125)
Experiment: SPR

T1 sequence (P02454 152-1207, chain 1 of 2): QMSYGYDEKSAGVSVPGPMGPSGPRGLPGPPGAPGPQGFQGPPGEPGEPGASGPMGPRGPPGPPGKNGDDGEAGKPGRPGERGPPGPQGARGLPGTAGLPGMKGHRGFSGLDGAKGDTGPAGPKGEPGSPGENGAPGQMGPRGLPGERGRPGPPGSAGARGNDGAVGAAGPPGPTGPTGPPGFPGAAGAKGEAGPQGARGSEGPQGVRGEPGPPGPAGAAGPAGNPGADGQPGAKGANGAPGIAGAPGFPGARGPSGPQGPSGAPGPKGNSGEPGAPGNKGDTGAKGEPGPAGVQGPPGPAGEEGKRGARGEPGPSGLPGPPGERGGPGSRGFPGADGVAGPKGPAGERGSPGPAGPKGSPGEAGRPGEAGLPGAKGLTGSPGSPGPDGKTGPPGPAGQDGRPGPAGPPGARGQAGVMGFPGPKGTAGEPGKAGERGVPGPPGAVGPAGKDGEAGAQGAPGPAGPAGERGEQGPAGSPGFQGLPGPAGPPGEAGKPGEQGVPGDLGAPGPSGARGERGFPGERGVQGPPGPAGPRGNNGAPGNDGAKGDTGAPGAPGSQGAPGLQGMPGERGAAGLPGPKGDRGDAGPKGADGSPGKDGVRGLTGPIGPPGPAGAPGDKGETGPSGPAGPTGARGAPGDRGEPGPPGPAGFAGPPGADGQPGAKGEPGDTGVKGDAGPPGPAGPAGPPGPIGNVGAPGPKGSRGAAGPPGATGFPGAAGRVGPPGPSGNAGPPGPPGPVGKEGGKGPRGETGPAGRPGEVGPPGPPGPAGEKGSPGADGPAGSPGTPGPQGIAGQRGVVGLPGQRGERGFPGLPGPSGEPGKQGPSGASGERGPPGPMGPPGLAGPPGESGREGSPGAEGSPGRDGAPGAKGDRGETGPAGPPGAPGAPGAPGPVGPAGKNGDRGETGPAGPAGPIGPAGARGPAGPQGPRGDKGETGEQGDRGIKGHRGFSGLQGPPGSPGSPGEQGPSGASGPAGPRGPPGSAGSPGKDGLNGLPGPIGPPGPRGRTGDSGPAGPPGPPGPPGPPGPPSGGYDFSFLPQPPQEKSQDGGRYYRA
T1 sequence (P02466 86-1125, chain 2 of 2): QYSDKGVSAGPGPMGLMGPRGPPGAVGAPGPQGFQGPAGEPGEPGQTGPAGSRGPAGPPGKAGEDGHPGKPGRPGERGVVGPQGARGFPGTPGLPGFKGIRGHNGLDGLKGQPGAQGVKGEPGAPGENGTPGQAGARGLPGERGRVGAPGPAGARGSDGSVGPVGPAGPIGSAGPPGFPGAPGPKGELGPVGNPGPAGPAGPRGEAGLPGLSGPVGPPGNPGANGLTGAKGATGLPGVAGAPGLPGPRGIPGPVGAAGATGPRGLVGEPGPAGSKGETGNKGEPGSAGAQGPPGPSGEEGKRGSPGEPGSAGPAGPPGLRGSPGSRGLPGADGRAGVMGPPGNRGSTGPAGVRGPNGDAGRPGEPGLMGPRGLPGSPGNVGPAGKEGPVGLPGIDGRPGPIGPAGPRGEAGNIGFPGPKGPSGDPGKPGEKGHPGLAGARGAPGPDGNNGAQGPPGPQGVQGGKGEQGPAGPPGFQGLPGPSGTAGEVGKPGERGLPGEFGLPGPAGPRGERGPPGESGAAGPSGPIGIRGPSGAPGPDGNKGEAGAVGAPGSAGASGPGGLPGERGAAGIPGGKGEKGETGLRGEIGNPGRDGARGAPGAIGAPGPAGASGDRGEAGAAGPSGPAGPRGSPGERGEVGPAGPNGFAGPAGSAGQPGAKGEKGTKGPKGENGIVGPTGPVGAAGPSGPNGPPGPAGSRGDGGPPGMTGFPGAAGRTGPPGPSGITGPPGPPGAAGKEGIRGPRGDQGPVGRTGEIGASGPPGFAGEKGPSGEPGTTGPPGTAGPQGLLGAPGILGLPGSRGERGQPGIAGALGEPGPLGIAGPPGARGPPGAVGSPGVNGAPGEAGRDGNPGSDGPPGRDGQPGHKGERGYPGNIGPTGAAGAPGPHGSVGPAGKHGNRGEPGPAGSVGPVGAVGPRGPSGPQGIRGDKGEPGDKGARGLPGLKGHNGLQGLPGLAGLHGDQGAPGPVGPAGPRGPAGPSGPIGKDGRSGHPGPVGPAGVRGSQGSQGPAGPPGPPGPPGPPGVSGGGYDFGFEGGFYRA

| Binder | Kd |
| --- | --- |
| B1 | 4530 nM |
| B2 | 817 nM |
| B3 | 289 nM |

Target: T1, type I collagen (BD-Biosciences)
Experiment: SPR
Remark: another data set of the same source

| Binder | koff |
| --- | --- |
| B1 | 0.000335 s⁻¹ |
| B2 | 0.0244 s⁻¹ |
| B3 | 0.00198 s⁻¹ |

Target: T1, type I collagen (BD-Biosciences)
Experiment: SPR
Remark: another data set of the same source

| Binder | Ka |
| --- | --- |
| B1 | 221000 M⁻¹ |
| B2 | 1.22e+06 M⁻¹ |
| B3 | 3.46e+06 M⁻¹ |

From publication PMC5856776 (2018)
